Test results from patent publication US20240270874A1 (JIANGSU HENGRUI PHARMACEUTICALS, published 2024).
Substitutions are numbered along the chain they refer to. Names may count otherwise. Each block holds one binder with its values, some of them ahead of it.

Molecular target: T1, human KLB on CHOK1-hKLB cells (human, UniProt Q86Z14 1-1044)
T1 construct: whole, on cells; also called human KLB antigen; β-Klotho
T1 sequence (looked up): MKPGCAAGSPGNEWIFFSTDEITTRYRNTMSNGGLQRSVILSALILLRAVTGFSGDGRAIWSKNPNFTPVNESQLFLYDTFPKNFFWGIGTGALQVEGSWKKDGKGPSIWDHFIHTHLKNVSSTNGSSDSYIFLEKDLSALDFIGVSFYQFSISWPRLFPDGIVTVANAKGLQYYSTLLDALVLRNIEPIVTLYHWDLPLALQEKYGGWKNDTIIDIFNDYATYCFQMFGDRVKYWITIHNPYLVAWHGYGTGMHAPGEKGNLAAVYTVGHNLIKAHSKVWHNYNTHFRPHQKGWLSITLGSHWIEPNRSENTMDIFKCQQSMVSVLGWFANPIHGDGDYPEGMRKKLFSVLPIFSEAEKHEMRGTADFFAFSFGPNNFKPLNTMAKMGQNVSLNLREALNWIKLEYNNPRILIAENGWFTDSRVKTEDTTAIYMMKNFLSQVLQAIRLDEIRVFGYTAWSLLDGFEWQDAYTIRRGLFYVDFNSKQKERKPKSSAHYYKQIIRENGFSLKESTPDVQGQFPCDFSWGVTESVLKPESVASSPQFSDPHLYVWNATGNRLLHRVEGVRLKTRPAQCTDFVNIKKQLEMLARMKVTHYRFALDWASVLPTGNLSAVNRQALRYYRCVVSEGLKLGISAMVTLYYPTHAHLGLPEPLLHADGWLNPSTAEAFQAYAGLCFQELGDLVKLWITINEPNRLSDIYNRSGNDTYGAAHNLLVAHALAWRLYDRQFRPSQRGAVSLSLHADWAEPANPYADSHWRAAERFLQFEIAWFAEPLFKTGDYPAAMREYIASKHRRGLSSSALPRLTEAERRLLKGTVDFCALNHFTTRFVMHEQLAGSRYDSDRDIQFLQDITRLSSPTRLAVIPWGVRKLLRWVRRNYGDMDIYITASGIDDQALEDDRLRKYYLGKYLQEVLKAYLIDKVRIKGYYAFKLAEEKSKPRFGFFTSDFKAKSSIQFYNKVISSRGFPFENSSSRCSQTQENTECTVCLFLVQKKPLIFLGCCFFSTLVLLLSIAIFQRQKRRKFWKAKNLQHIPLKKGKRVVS
Assay: flow cytometry on CHOK1-hKLB cells
Text: The above heavy chain variable regions were fused to the heavy chain constant region (set forth in SEQ ID NO: 22) and the light chain variable regions were fused to the light chain constant region (set forth in SEQ ID NO: 23) to construct anti-KLB antibodies, and the binding activity of the obtained antibodies for CHOK1-hKLB was detected (see Test Example 2 of the present disclosure for the experimental method).
The binding ability of the antibodies for CHOK1 cell strains CHOK1-hKLB and CHOK1-cynoKLB overexpressing human KLB and monkey KLB (see Example 1 for specific preparation procedure), respectively, was detected by flow cytometry. The specific procedure was as follows: the above cells were cultured in 10% FBS-containing IMDM medium and incubated in an incubator at 37° C. and 5% CO₂ for 2 days. The cells were then added to a cell plate at 1×10⁵ cells per well, centrifuged at 300 g for 5 min, and then washed once with 1% BSA. The antibody diluted in gradient was added to the cell plate at 100 μL per well, and the mixture was incubated at 4° C. for 1 h and washed once with 1% BSA. The diluted (1:400) APC-goat anti-human IgG Fc fluorescent secondary antibody was added at 100 μL per well, and the resulting mixture was incubated at 4° C. for 1 h. The plate was washed three times with 1% BSA, PBS was added at 100 μL per well, and the plate was read.

- EC50: 0.41 nM
B1: hAb99-6 (antibody, human IgG1, kappa, L234A L235A)
heavy: not shown
light: DIQMTQSPSSLSASVGDRVTITCRASKSISKFLAWFQQKPGKTNKLLIYSGSTLQSGVPSRFSGSGSGTDFTLTISSLQPEDFATYYCQQHNEYPWTFGGGTKVEIKRTVAAPSVFIFPPSDEQLKSGTASVVCLLNNFYPREAKVQWKVDNALQSGNSQESVTEQDSKDSTYSLSSTLTLSKADYEKHKVYACEVTHQGLSSPVTKSFNRGEC
notes: humanized mAb-99: hAb99VH2 + hAb99VL2; human IgG1 (L234A, L235A) / kappa constant regions

- EC50: 0.33 nM
B2: hAb99-11 (antibody, human IgG1, kappa, L234A L235A)
heavy: not shown
light: B1 light with I2V, M4I
notes: humanized mAb-99: hAb99VH3 + hAb99VL3; human IgG1 (L234A, L235A) / kappa constant regions

- EC50: 0.36 nM
B3: hAb99-10 (antibody, human IgG1, kappa, L234A L235A)
heavy: not shown
light: B1 light
notes: humanized mAb-99: hAb99VH3 + hAb99VL2; human IgG1 (L234A, L235A) / kappa constant regions

- EC50: 0.35 nM
B4: hAb99-7 (antibody, human IgG1, kappa, L234A L235A)
heavy: not shown
light: B1 light with I2V, M4I
notes: humanized mAb-99: hAb99VH2 + hAb99VL3; human IgG1 (L234A, L235A) / kappa constant regions

- EC50: 0.6 nM
B5: hAb99-14 (antibody, human IgG1, kappa, L234A L235A, V domains shown)
VH: EVQLVQSGAEVKKPGASVKVSCKASGYTFTNYGINWVRQAPGQRLEWMGYIYIGNLDIEYNAKFKGRVTITSDTSASTAYMELSSLRSEDTAVYYCARGRGLGHFDVWGQGTTVTVSS
VL: DIQMTQSPSSLSASVGDRVTITCRASKSISKFLAWFQQKPGKTNKLLIYSGSTLQSGVPSRFSGSGSGTDFTLTISSLQPEDFATYYCQQHNEYPWTFGGGTKVEIKR
notes: humanized mAb-99: hAb99VH1-NL + hAb99VL2; human IgG1 (L234A, L235A) / kappa constant regions

- EC50: 0.41 nM
B6: hAb99-15 (antibody, human IgG1, kappa, L234A L235A, V domains shown)
VH: B5 VH with N55Q, L56G
VL: B5 VL
notes: humanized mAb-99: hAb99VH1-QG + hAb99VL2; human IgG1 (L234A, L235A) / kappa constant regions

- EC50: 0.35 nM
B7: hAb99-2 (antibody, human IgG1, kappa, L234A L235A)
heavy: not shown
light: B1 light
notes: humanized mAb-99: hAb99VH1 + hAb99VL2; human IgG1 (L234A, L235A) / kappa constant regions

- EC50: 0.61 nM
B8: hAb99-1 (antibody, human IgG1, kappa, L234A L235A, V domains shown)
VH: B5 VH with L56G
VL: B5 VL with F36Y, T43A
notes: humanized mAb-99: hAb99VH1 + hAb99VL1; human IgG1 (L234A, L235A) / kappa constant regions

- EC50: 0.45 nM
B9: hAb99-21 (antibody, human IgG1, kappa, L234A L235A, V domains shown)
VH: B5 VH with A24T, R44G, N55Q, L56G, Y95F
VL: B5 VL
notes: humanized mAb-99: hAb99VH3-QG + hAb99VL2; human IgG1 (L234A, L235A) / kappa constant regions

- EC50: 0.33 nM
B10: hAb99-12 (antibody, human IgG1, kappa, L234A L235A, V domains shown)
VH: B5 VH with A24T, R44G, L56G, Y95F
VL: B5 VL with I2V, M4I, Q38E, V58I
notes: humanized mAb-99: hAb99VH3 + hAb99VL4; human IgG1 (L234A, L235A) / kappa constant regions

- EC50: 0.43 nM
B11: hAb99-18 (antibody, human IgG1, kappa, L234A L235A, V domains shown)
VH: B5 VH with R44G, N55Q, L56G
VL: B5 VL
notes: humanized mAb-99: hAb99VH2-QG + hAb99VL2; human IgG1 (L234A, L235A) / kappa constant regions

- EC50: 0.38 nM
B12: hAb99-19 (antibody, human IgG1, kappa, L234A L235A, V domains shown)
VH: B5 VH with A24T, R44G, L56V, Y95F
VL: B5 VL
notes: humanized mAb-99: hAb99VH3-NV + hAb99VL2; human IgG1 (L234A, L235A) / kappa constant regions

- EC50: 0.37 nM
B13: hAb99-4 (antibody, human IgG1, kappa, L234A L235A, V domains shown)
VH: B5 VH with L56G
VL: B5 VL with I2V, M4I, Q38E, V58I
notes: humanized mAb-99: hAb99VH1 + hAb99VL4; human IgG1 (L234A, L235A) / kappa constant regions

- EC50: 0.47 nM
B14: hAb99-16 (antibody, human IgG1, kappa, L234A L235A, V domains shown)
VH: B5 VH with R44G, L56V
VL: B5 VL
notes: humanized mAb-99: hAb99VH2-NV + hAb99VL2; human IgG1 (L234A, L235A) / kappa constant regions

- EC50: 0.43 nM
B15: hAb99-17 (antibody, human IgG1, kappa, L234A L235A, V domains shown)
VH: B5 VH with R44G
VL: B5 VL
notes: humanized mAb-99: hAb99VH2-NL + hAb99VL2; human IgG1 (L234A, L235A) / kappa constant regions

- EC50: 0.47 nM
B16: hAb99-9 (antibody, human IgG1, kappa, L234A L235A, V domains shown)
VH: B5 VH with A24T, R44G, L56G, Y95F
VL: B5 VL with F36Y, T43A
notes: humanized mAb-99: hAb99VH3 + hAb99VL1; human IgG1 (L234A, L235A) / kappa constant regions

- EC50: 0.35 nM
B17: hAb99-3 (antibody, human IgG1, kappa, L234A L235A)
heavy: not shown
light: B1 light with I2V, M4I
notes: humanized mAb-99: hAb99VH1 + hAb99VL3; human IgG1 (L234A, L235A) / kappa constant regions

- EC50: 0.5 nM
B18: hAb99-5 (antibody, human IgG1, kappa, L234A L235A, V domains shown)
VH: B5 VH with R44G, L56G
VL: B5 VL with F36Y, T43A
notes: humanized mAb-99: hAb99VH2 + hAb99VL1; human IgG1 (L234A, L235A) / kappa constant regions

- EC50: 0.39 nM
B19: hAb99-8 (antibody, human IgG1, kappa, L234A L235A, V domains shown)
VH: B5 VH with R44G, L56G
VL: B5 VL with I2V, M4I, Q38E, V58I
notes: humanized mAb-99: hAb99VH2 + hAb99VL4; human IgG1 (L234A, L235A) / kappa constant regions

- EC50: 0.41 nM
B20: hAb99-20 (antibody, human IgG1, kappa, L234A L235A, V domains shown)
VH: B5 VH with A24T, R44G, Y95F
VL: B5 VL
notes: humanized mAb-99: hAb99VH3-NL + hAb99VL2; human IgG1 (L234A, L235A) / kappa constant regions

- EC50: 1.58 nM
B21: hAb18-2 (antibody, human IgG1, kappa, L234A L235A, V domains shown)
VH: EVQLVQSGAEVKKPGASVKVSCKASGYTFTDYAMHWVRQAPGQRLEWMGVISTYSGTTNYNQNFKGRVTITVDKSASTAYMELSSLRSEDTAVYYCARSGPLDYWGQGTTVTVSS
VL: ENVLTQSPDFQSVTPKEKVTITCRASSSVSSSYLHWYQQKPDQSPKLWIYSTSNLASGVPSRFSGSGSGTDYTLTINSLEAEDAATYYCQQYSGYPLTFGQGTKLEIKR
notes: humanized mAb-18: hAb18VH1 + hAb18VL2; human IgG1 (L234A, L235A) / kappa constant regions

- EC50: 2 nM
B22: hAb18-6 (antibody, human IgG1, kappa, L234A L235A, V domains shown)
VH: B21 VH with A24G, M48I, V68A, I70V
VL: B21 VL
notes: humanized mAb-18: hAb18VH3 + hAb18VL2; human IgG1 (L234A, L235A) / kappa constant regions

- EC50: 2 nM
B23: hAb18-4 (antibody, human IgG1, kappa, L234A L235A, V domains shown)
VH: B21 VH with A24G, I70V
VL: B21 VL
notes: humanized mAb-18: hAb18VH2 + hAb18VL2; human IgG1 (L234A, L235A) / kappa constant regions

- EC50: 1.8 nM
B24: hAb18-5 (antibody, human IgG1, kappa, L234A L235A, V domains shown)
VH: B21 VH with A24G, M48I, V68A, I70V
VL: B21 VL with N2I, Y72F
notes: humanized mAb-18: hAb18VH3 + hAb18VL1; human IgG1 (L234A, L235A) / kappa constant regions

- EC50: 1.9 nM
B25: hAb18-3 (antibody, human IgG1, kappa, L234A L235A, V domains shown)
VH: B21 VH with A24G, I70V
VL: B21 VL with N2I, Y72F
notes: humanized mAb-18: hAb18VH2 + hAb18VL1; human IgG1 (L234A, L235A) / kappa constant regions

- EC50: 2.4 nM
B26: hAb18-7 (antibody, human IgG1, kappa, L234A L235A, V domains shown)
VH: B21 VH
VL: B21 VL with N54Q
notes: humanized mAb-18: hAb18VH1 + hAb18VL2-1; human IgG1 (L234A, L235A) / kappa constant regions

- EC50: 1.34 nM
B27: hAb18-1 (antibody, human IgG1, kappa, L234A L235A, V domains shown)
VH: B21 VH
VL: B21 VL with N2I, Y72F
notes: humanized mAb-18: hAb18VH1 + hAb18VL1; human IgG1 (L234A, L235A) / kappa constant regions
